Laboratory results as given in US20250353912A1 (NEW YORK UNIVERSITY, published 2025).

B1: EO_Q01 (scFv, V domains shown)
VH: EVQLVESGGGLVQPGGSLRLSCAASGFTISSSYIHWVRQAPGKGLEWVAYISPSYGSTSYADSVKGRFTISADTSKNTAYLQMNSLRAEDTAVYYCARELVTMTADYWGQGTLVTVSS
VL: DIQMTQSPSSLSASVGDRVTITCRASQSVSSAVAWYQQKPGKAPKLLIYSASSLYSGVPSRFSGSRSGTDFTLTISSLQPEDFATYYCQQYSHWPITFGQGTKVEIKR
notes: yeast-display scFv
B2: EO_Q14 (scFv, V domains shown)
VH: EVQLVESGGGLVQPGGSLRLSCAASGFTISSSYIHWVRQAPGKGLEWVAYISPSYGSTSYADSVKGRFTISADTSKNTAYLQMNSLRAEDTAVYYCARESITMSPDYWGQGTLVTVSS
VL: DIQMTQSPSSLSASVGDRVTITCRASQSVSSAVAWYQQKPGKAPKLLIYSASSLYSGVPSRFSGSRSGTDFTLTISSLQPEDFATYYCQQYSSWPITFGQGTKVEIKR
notes: yeast-display scFv
B3: EO_Q12 (scFv, V domains shown)
VH: EVQLVESGGGLVQPGGSLRLSCAASGFTISSSYIHWVRQAPGKGLEWVAYISPSYGSTSYADSVKGRFTISADTSKNTAYLQMNSLRAEDTAVYYCARELTTMSIDYWGQGTLVTVSS
VL: DIQMTQSPSSLSASVGDRVTITCRASQSVSSAVAWYQQKPGKAPKLLIYSASSLYSGVPSRFSGSRSGTDFTLTISSLQPEDFATYYCQQYASWPITFGQGTKVEIKR
notes: yeast-display scFv
B4: EO_Q18 (scFv, V domains shown)
VH: EVQLVESGGGLVQPGGSLRLSCAASGFTISSSYIHWVRQAPGKGLEWVAYISPSYGSTSYADSVKGRFTISADTSKNTAYLQMNSLRAEDTAVYYCAREYVTMALDYWGQGTLVTVSS
VL: DIQMTQSPSSLSASVGDRVTITCRASQSVSSAVAWYQQKPGKAPKLLIYSASSLYSGVPSRFSGSRSGTDFTLTISSLQPEDFATYYCQQYSAWPETFGQGTKVEIKR
notes: yeast-display scFv
B5: EO_Q11 (scFv, V domains shown)
VH: EVQLVESGGGLVQPGGSLRLSCAASGFTISSSYIHWVRQAPGKGLEWVAYISPSYGSTSYADSVKGRFTISADTSKNTAYLQMNSLRAEDTAVYYCARELVTMTIDYWGQGTLVTVSS
VL: DIQMTQSPSSLSASVGDRVTITCRASQSVSSAVAWYQQKPGKAPKLLIYSASSLYSGVPSRFSGSRSGTDFTLTISSLQPEDFATYYCQQYSGWPITFGQGTKVEIKR
notes: yeast-display scFv
B6: EO_Q15 (scFv, V domains shown)
VH: EVQLVESGGGLVQPGGSLRLSCAASGFTISSSYIHWVRQAPGKGLEWVAYISPSYGSTSYADSVKGRFTISADTSKNTAYLQMNSLRAEDTAVYYCARELIEMTTDYWGQGTLVTVSS
VL: DIQMTQSPSSLSASVGDRVTITCRASQSVSSAVAWYQQKPGKAPKLLIYSASSLYSGVPSRFSGSRSGTDFTLTISSLQPEDFATYYCQQYSHWPITFGQGTKVEIKR
notes: yeast-display scFv
B7: EO_Q06 (scFv, V domains shown)
VH: EVQLVESGGGLVQPGGSLRLSCAASGFTISSSYIHWVRQAPGKGLEWVAYISPSYGSTSYADSVKGRFTISADTSKNTAYLQMNSLRAEDTAVYYCARESITMTKDYWGQGTLVTVSS
VL: DIQMTQSPSSLSASVGDRVTITCRASQSVSSAVAWYQQKPGKAPKLLIYSASSLYSGVPSRFSGSRSGTDFTLTISSLQPEDFATYYCQQYSHWPITFGQGTKVEIKR
notes: yeast-display scFv
B8: EO_Q07 (scFv, V domains shown)
VH: EVQLVESGGGLVQPGGSLRLSCAASGFTISSSYIHWVRQAPGKGLEWVAYISPSYGSTSYADSVKGRFTISADTSKNTAYLQMNSLRAEDTAVYYCARELTTMSIDYWGQGTLVTVSS
VL: DIQMTQSPSSLSASVGDRVTITCRASQSVSSAVAWYQQKPGKAPKLLIYSASSLYSGVPSRFSGSRSGTDFTLTISSLQPEDFATYYCQQYAKWPITFGQGTKVEIKR
notes: yeast-display scFv
B9: EO_Q09 (scFv, V domains shown)
VH: EVQLVESGGGLVQPGGSLRLSCAASGFTISSSYIHWVRQAPGKGLEWVAYISPSYGSTSYADSVKGRFTISADTSKNTAYLQMNSLRAEDTAVYYCAREEVTMTADYWGQGTLVTVSS
VL: DIQMTQSPSSLSASVGDRVTITCRASQSVSSAVAWYQQKPGKAPKLLIYSASSLYSGVPSRFSGSRSGTDFTLTISSLQPEDFATYYCQQYSHWPITFGQGTKVEIKR
notes: yeast-display scFv
B10: EO_Q13 (scFv, V domains shown)
VH: EVQLVESGGGLVQPGGSLRLSCAASGFTISSSYIHWVRQAPGKGLEWVAYISPSYGSTSYADSVKGRFTISADTSKNTAYLQMNSLRAEDTAVYYCARELTTMTADYWGQGTLVTVSS
VL: DIQMTQSPSSLSASVGDRVTITCRASQSVSSAVAWYQQKPGKAPKLLIYSASSLYSGVPSRFSGSRSGTDFTLTISSLQPEDFATYYCQQYSHWPITFGQGTKVEIKR
notes: yeast-display scFv
B11: EO_Q10 (scFv, V domains shown)
VH: EVQLVESGGGLVQPGGSLRLSCAASGFTISSSYIHWVRQAPGKGLEWVAYISPSYGSTSYADSVKGRFTISADTSKNTAYLQMNSLRAEDTAVYYCARELIEMTPDYWGQGTLVTVSS
VL: DIQMTQSPSSLSASVGDRVTITCRASQSVSSAVAWYQQKPGKAPKLLIYSASSLYSGVPSRFSGSRSGTDFTLTISSLQPEDFATYYCQQYSGWPITFGQGTKVEIKR
notes: yeast-display scFv
B12: EO_Q22 (scFv, V domains shown)
VH: EVQLVESGGGLVQPGGSLRLSCAASGFTISSSYIHWVRQAPGKGLEWVAYISPSYGSTSYADSVKGRFTISADTSKNTAYLQMNSLRAEDTAVYYCAREYVTMALDYWGQGTLVTVSS
VL: DIQMTQSPSSLSASVGDRVTITCRASQSVSSAVAWYQQKPGKAPKLLIYSASSLYSGVPSRFSGSRSGTDFTLTISSLQPEDFATYYCQQYSHWPITFGQGTKVEIKR
notes: yeast-display scFv
B13: EO_Q23 (scFv, V domains shown)
VH: EVQLVESGGGLVQPGGSLRLSCAASGFTISSSYIHWVRQAPGKGLEWVAYISPSYGSTSYADSVKGRFTISADTSKNTAYLQMNSLRAEDTAVYYCAREYVTMALDYWGQGTLVTVSS
VL: DIQMTQSPSSLSASVGDRVTITCRASQSVSSAVAWYQQKPGKAPKLLIYSASSLYSGVPSRFSGSRSGTDFTLTISSLQPEDFATYYCQQYSHWPETFGQGTKVEIKR
notes: yeast-display scFv
B14: EO_Q08 (scFv, V domains shown)
VH: EVQLVESGGGLVQPGGSLRLSCAASGFTISSSYIHWVRQAPGKGLEWVAYISPSYGSTSYADSVKGRFTISADTSKNTAYLQMNSLRAEDTAVYYCARELTEMTTDYWGQGTLVTVSS
VL: DIQMTQSPSSLSASVGDRVTITCRASQSVSSAVAWYQQKPGKAPKLLIYSASSLYSGVPSRFSGSRSGTDFTLTISSLQPEDFATYYCQQYSSWPITFGQGTKVEIKR
notes: yeast-display scFv
B15: EO_Q02 (scFv, V domains shown)
VH: EVQLVESGGGLVQPGGSLRLSCAASGFTISSSYIHWVRQAPGKGLEWVAYISPSYGSTSYADSVKGRFTISADTSKNTAYLQMNSLRAEDTAVYYCAREYTTMSIDYWGQGTLVTVSS
VL: DIQMTQSPSSLSASVGDRVTITCRASQSVSSAVAWYQQKPGKAPKLLIYSASSLYSGVPSRFSGSRSGTDFTLTISSLQPEDFATYYCQQYSAWPETFGQGTKVEIKR
notes: yeast-display scFv
B16: EO_Q04 (scFv, V domains shown)
VH: EVQLVESGGGLVQPGGSLRLSCAASGFTISSSYIHWVRQAPGKGLEWVAYISPSYGSTSYADSVKGRFTISADTSKNTAYLQMNSLRAEDTAVYYCARESVTMTKDYWGQGTLVTVSS
VL: DIQMTQSPSSLSASVGDRVTITCRASQSVSSAVAWYQQKPGKAPKLLIYSASSLYSGVPSRFSGSRSGTDFTLTISSLQPEDFATYYCQQYSDWPITFGQGTKVEIKR
notes: yeast-display scFv
B17: EO_Q03 (scFv, V domains shown)
VH: EVQLVESGGGLVQPGGSLRLSCAASGFTISSSYIHWVRQAPGKGLEWVAYISPSYGSTSYADSVKGRFTISADTSKNTAYLQMNSLRAEDTAVYYCARESVTMSADYWGQGTLVTVSS
VL: DIQMTQSPSSLSASVGDRVTITCRASQSVSSAVAWYQQKPGKAPKLLIYSASSLYSGVPSRFSGSRSGTDFTLTISSLQPEDFATYYCQQYSAWPITFGQGTKVEIKR
notes: yeast-display scFv
B18: EO_Q24 (scFv, V domains shown)
VH: EVQLVESGGGLVQPGGSLRLSCAASGFTISSSYIHWVRQAPGKGLEWVAYISPSYGSTSYADSVKGRFTISADTSKNTAYLQMNSLRAEDTAVYYCAREYVTMALDYWGQGTLVTVSS
VL: DIQMTQSPSSLSASVGDRVTITCRASQSVSSAVAWYQQKPGKAPKLLIYSASSLYSGVPSRFSGSRSGTDFTLTISSLQPEDFATYYCQQYSEWPETFGQGTKVEIKR
notes: yeast-display scFv
B19: EO_Q20 (scFv, V domains shown)
VH: EVQLVESGGGLVQPGGSLRLSCAASGFTISSSYIHWVRQAPGKGLEWVAYISPSYGSTSYADSVKGRFTISADTSKNTAYLQMNSLRAEDTAVYYCAREEVTMTPDYWGQGTLVTVSS
VL: DIQMTQSPSSLSASVGDRVTITCRASQSVSSAVAWYQQKPGKAPKLLIYSASSLYSGVPSRFSGSRSGTDFTLTISSLQPEDFATYYCQQYSDWPITFGQGTKVEIKR
notes: yeast-display scFv
B20: EO_Q05 (scFv, V domains shown)
VH: EVQLVESGGGLVQPGGSLRLSCAASGFTISSSYIHWVRQAPGKGLEWVAYISPSYGSTSYADSVKGRFTISADTSKNTAYLQMNSLRAEDTAVYYCAREEVTMSIDYWGQGTLVTVSS
VL: DIQMTQSPSSLSASVGDRVTITCRASQSVSSAVAWYQQKPGKAPKLLIYSASSLYSGVPSRFSGSRSGTDFTLTISSLQPEDFATYYCQQYAEWPITFGQGTKVEIKR
notes: yeast-display scFv
B21: IBA1-4 (antibody, V domains shown)
VH: EVQLVESGGGLVQPGGSLRLSCAASGFTVSSSSIHWVRQAPGKGLEWVASIYSYSGSTYYADSVKGRFTISADTSKNTAYLQMNSLRAEDTAVYYCARQYSSSYYVWPGMDYWGQGTLVTVSS
VL: DIQMTQSPSSLSASVGDRVTITCRASQSVSSAVAWYQQKPGKAPKLLIYSASSLYSGVPSRFSGSRSGTDFTLTISSLQPEDFATYYCQQYHYWASLITFGQGTKVEIKR
notes: phage-display clone

molecular target: T1, HLA-A*02:01 in complex with the EGFR peptide … conjugated with osimertinib (human, osimertinib covalently bound to Cys); assay: yeast display
T1 construct: also called HLA-A*02:01_EGFR-osimertinib; osimertinib-EGFR/HLA-A*02

Row | Binder | binding result
1 | B1 | binds
2 | B2 | binds
3 | B3 | binds
4 | B4 | binds
5 | B5 | binds
6 | B6 | binds
7 | B7 | binds
8 | B8 | binds
9 | B9 | binds
10 | B10 | binds
11 | B11 | binds
12 | B12 | binds
13 | B13 | binds
14 | B14 | binds
15 | B15 | binds
16 | B16 | binds
17 | B17 | binds
18 | B18 | binds
19 | B19 | binds
20 | B20 | binds

molecular target: T2, HLA-A*01:01 in complex with the BTK peptide … conjugated with Ibrutinib (human, ibrutinib covalently bound to Cys); assay: phage display selection; MBBA
T2 construct: also called HLA-A*01:01_BTK-Ibrutinib

Row | Binder | binding result
21 | B21 | binds
